Test results taken from paper PMC7503470 (Molecules, 2020).

Experiments:
in vivo = conditions: male, NOD-scid IL2Rg^null (NSG), mouse, iv, total radioactivity
Method: All imaging and biodistribution studies were performed using male NOD-scid IL2Rg^null (NSG) mice and conducted according to the guidelines established by the Canadian Council on Animal Care and approved by Animal Ethics Committee of the University of British Columbia. For tumor inoculations, mice were anesthetized by inhalation with 2% isoflurane in oxygen and implanted subcutaneously with 5 × 10^6 LNCaP cells below the left shoulder. Imaging and biodistribution studies were performed only after tumors grew to 5−8 mm in diameter over a period of 5−7 weeks.
For ex vivo biodistribution studies, mice were injected with ~1.5−3 MBq of the ^68Ga-labeled tracer. At 1 h p.i., mice were euthanized, blood was drawn from heart, and organs/tissues of interest were collected, rinsed with PBS, blotted dry, weighed, and counted using an automated gamma counter. The uptake in each organ/tissue was normalized to the injected dose and expressed as the percentage of the injected dose per gram of tissue (%ID/g).
Statistical analyses were performed by Student’s t-test using the Microsoft (Redmond, WA, USA) Excel software. The unpaired, two-tailed test was used to compare tissue uptake and tumor-to-background (muscle, blood and kidney) contrast ratios of [^68Ga]Ga-DOTA-AmBz-MVK(HTK01166)-OH and [^68Ga]Ga-DOTA-AmBz-M(O)VK(HTK01166)-OH. The unpaired, one-tailed test was used to compare kidney uptake of [^68Ga]Ga-DOTA-AmBz-MVK(HTK01166)-OH (or [^68Ga]Ga-DOTA-AmBz-M(O)VK(HTK01166)-OH) with that of the previously reported [^68Ga]Ga-HTK01166 [15]. The difference was considered statistically significant when the p value was <0.05.

mice = conditions: mouse, in vivo
Method: Radio-metabolites of [^68Ga]Ga-DOTA-AmBz-MVK(Ac)-OH and [^68Ga]Ga-DOTA-AmBz-MVK(HTK01166)-OH in mouse blood and urine samples were analyzed by HPLC. The blood samples were collected at 5 min p.i. due to the fast excretion nature of the small radio-metabolites, whereas the urine samples were collected at 15 min p.i. to allow sufficient time for the accumulation of enough radio-metabolites for analysis.
Male NSG mice were injected with 3–17 MBq of the ^68Ga-labeled peptide. For blood profiling, mice were anesthetized with 2% isoflurane in O2 and euthanized by CO2 inhalation at 5 min p.i. Blood draw was then performed by cardiac puncture and blood was collected in an eppendorf tube with equal volume of CH3CN. Each tube was then centrifuged at RT for 10–15 min and the resulting supernatant was collected and analyzed using the analytical HPLC column to identify and quantify radio-metabolite(s) in blood. For the purpose of urine profiling, urine was collected after euthanizing the mice at 15 min p.i. The urine samples were also collected and analyzed using the analytical HPLC column to identify and quantify radio-metabolite(s) in urine.

[1] = brush border membrane vesicles (BBMVs) extracted from mouse kidneys; conditions: 37 °C, up to 1 h
[2] = brush border membrane vesicles (BBMVs) extracted from mouse kidneys, control well with phosphoramidon; conditions: 37 °C, up to 1 h
[3] = mouse urine samples collected at 15 min p.i.; conditions: Male NSG mice, up to 15 min p.i.
[4] = mouse blood samples collected at 5 min p.i.; conditions: Male NSG mice, up to 5 min p.i.
[5] = brush border membrane vesicles (BBMVs) extracted from mouse kidneys, with phosphoramidon; conditions: 37 °C, up to 1 h

Compound | tissue uptake at 1 h (in vivo; Adrenal Glands uptake) [%ID/g] | tissue uptake at 1 h (in vivo; Bone uptake) [%ID/g] | tissue uptake at 1 h (in vivo; Brain uptake) [%ID/g] | tissue uptake at 1 h (in vivo; Fat uptake) [%ID/g] | tissue uptake at 1 h (in vivo; Heart uptake) [%ID/g] | tissue uptake at 1 h (in vivo; Intestines uptake) [%ID/g] | tissue uptake at 1 h (in vivo; Kidneys uptake) [%ID/g] | tissue uptake at 1 h (in vivo; LNCaP Tumor uptake) [%ID/g] | tissue uptake at 1 h (in vivo; Liver uptake) [%ID/g] | tissue uptake at 1 h (in vivo; Lungs uptake) [%ID/g] | tissue uptake at 1 h (in vivo; Muscle uptake) [%ID/g] | tissue uptake at 1 h (in vivo; Pancreas uptake) [%ID/g] | tissue uptake at 1 h (in vivo; Spleen uptake) [%ID/g] | tissue uptake at 1 h (in vivo; Stomach uptake) [%ID/g] | tissue uptake at 1 h (in vivo; Tail uptake) [%ID/g] | tissue uptake at 1 h (in vivo; Testes uptake) [%ID/g] | tissue to tissue ratio at 1 h (in vivo; Tumor/Blood uptake ratio) | tissue to tissue ratio at 1 h (in vivo; Tumor/Kidney uptake ratio) | tissue to tissue ratio at 1 h (in vivo; Tumor/Muscle uptake ratio) | cleaved bond [1] | other results
CC(C)[C@H](NC(=O)[C@H](CC[S+](C)[O-])NC(=O)c1ccc(CNC(=O)CN2CCN(CC(=O)O)CCN(CC(=O)O)CCN(CC(=O)O)CC2)cc1)C(=O)N[C@@H](CCCCNC(=O)CCc1cn(CC(=O)NC[C@H]2CC[C@H](C(=O)N[C@H](C(=O)NCCCC[C@H](NC(=O)N[C@@H](CCC(=O)O)C(=O)O)C(=O)O)C3Cc4ccccc4C3)CC2)nn1)C(=O)O (stereo partly shown) [[^68Ga]Ga-DOTA-AmBz-M(O)VK(HTK01166)-OH, metal not drawn] | 4.33 ± 2.07 | 0.11 ± 0.05 | 0.03 ± 0.01 | 0.52 ± 0.13 | 0.23 ± 0.05 | 0.29 ± 0.1 | 89.7 ± 19.3 | 4.06 ± 1.27 | 0.32 ± 0.06 | 0.88 ± 0.1 | 0.22 ± 0.05 | 0.56 ± 0.24 | 11.5 ± 2.7 | 0.13 ± 0.05 | 1.86 ± 2.44 | 0.31 ± 0.07 | 6.83 ± 2.81 | 0.04 ± 0.02 | 17.9 ± 7.57 | – | –
CSCC[C@H](NC(=O)c1ccc(CNC(=O)CN2CCN(CC(=O)O)CCN(CC(=O)O)CCN(CC(=O)O)CC2)cc1)C(=O)N[C@H](C(=O)N[C@@H](CCCCNC(=O)CCc1cn(CC(=O)NC[C@H]2CC[C@H](C(=O)N[C@H](C(=O)NCCCC[C@H](NC(=O)N[C@@H](CCC(=O)O)C(=O)O)C(=O)O)C3Cc4ccccc4C3)CC2)nn1)C(=O)O)C(C)C [[^68Ga]Ga-DOTA-AmBz-MVK(HTK01166)-OH, metal not drawn] | 5.59 ± 4.02 | 0.16 ± 0.04 | 0.02 | 0.72 ± 0.33 | 0.25 ± 0.12 | 0.4 ± 0.1 | 104 ± 12.2 | 3.98 ± 0.87 | 0.58 ± 0.08 | 0.96 ± 0.12 | 0.21 ± 0.05 | 0.6 ± 0.22 | 8.87 ± 2.63 | 0.11 ± 0.02 | 1.03 ± 0.82 | 0.36 ± 0.06 | 7.24 ± 1.16 | 0.04 ± 0.01 | 19.9 ± 5.41 | – | unidentified radio-metabolite in urine (mice): no presence
[^68Ga]Ga-DOTA-AmBz-M(O)VK(HTK01166)-OH | – | – | – | – | – | – | – | – | – | – | – | – | – | – | – | – | – | – | – | – | not cleaved [1]: 94% remaining intact after 1 h; not cleaved [2]: 99.5% remaining intact after 1 h
[^68Ga]Ga-DOTA-AmBz-MVK(Ac)-OH | – | – | – | – | – | – | – | – | – | – | – | – | – | – | – | – | – | – | – | Met-Val, major, 1 h | cleaved bond [3]: Met-Val, major, 15 min p.i.; cleaved bond [2]: Met-Val, 1 h; cleaved bond [4]: Met-Val, minor, 5 min p.i.
[^68Ga]Ga-DOTA-AmBz-MVK(HTK01166)-OH | – | – | – | – | – | – | – | – | – | – | – | – | – | – | – | – | – | – | – | Met-Val, 1 h | not cleaved [5]: ~95% intact after 1 h; cleaved bond [3]: Met-Val, 15 min p.i.; cleaved bond [4]: Met-Val, 5 min p.i.
